According to patent US20260191957A1 (NOVATIM IMMUNE THERAPEUTICS ZHEJIANG, published 2026):
Where a chain is given by its changes, count along the chain named.

Biological target: T1, CD19 on Nalm6-luc tumor cells (CD19+BCMA-) (UniProt P15391 20-556, limits assumed)
T1 sequence (looked up): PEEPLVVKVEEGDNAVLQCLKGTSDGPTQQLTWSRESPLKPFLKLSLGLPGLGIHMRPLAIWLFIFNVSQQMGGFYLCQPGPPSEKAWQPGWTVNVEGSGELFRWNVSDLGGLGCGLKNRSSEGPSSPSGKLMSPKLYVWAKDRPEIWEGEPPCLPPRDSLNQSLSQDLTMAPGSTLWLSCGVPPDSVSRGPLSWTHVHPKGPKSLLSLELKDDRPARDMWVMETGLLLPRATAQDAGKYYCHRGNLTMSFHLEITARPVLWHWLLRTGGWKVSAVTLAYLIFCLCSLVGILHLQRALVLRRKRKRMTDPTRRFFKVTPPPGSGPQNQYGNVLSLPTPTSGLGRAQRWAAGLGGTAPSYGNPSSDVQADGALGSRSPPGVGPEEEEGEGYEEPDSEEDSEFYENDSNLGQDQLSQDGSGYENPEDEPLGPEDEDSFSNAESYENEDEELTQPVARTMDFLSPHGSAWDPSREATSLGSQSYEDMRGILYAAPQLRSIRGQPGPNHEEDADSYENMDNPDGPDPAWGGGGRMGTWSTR
Assay: cell-based or functional assay

B1: B19 CAR (BCMA CAR and CD19-mutant CAR expressed in parallel on T cells) (other)
chain 1: DIVLTQSPPSLAMSLGKRATISCRASESVTILGSHLIHWYQQKPGQPPTLLIQLASNVQTGVPARFSGSGSRTDFTLTIDPVEEDDVAVYYCLQSRTIPRTFGGGTKLEIKGGGGSGGGGSGGGGSQIQLVQSGPELKKPGETVKISCKASGYTFTDYSINWVKRAPGKGLKWMGWINTETREPAYAYDFRGRFAFSLETSASTAYLQINNLKYEDTATYFCALDYSYAMDYWGQGTSVTVSSTTTPAPRPPTPAPTIASQPLSLRPEACRPAAGGAVHTRGLDFACDIYIWAPLAGTCGVLLLSLVITLYCKRGRKKLLYIFKQPFMRPVQTTQEEDGCSCRFPEEEEGGCELRVKFSRSADAPAYQQGQNQLYNELNLGRREEYDVLDKRRGRDPEMGGKPRRKNPQEGLYNELQKDKMAEAYSEIGMKGERRRGKGHDGLYQGLSTATKDTYDALHMQALPPR
chain 2: DIQMTQTTSSLSASLGDRVTISCRASQDISKYLNWYQQKPDGTVKLLIYHTSRLHSGVPSRFSGSGSGTDYSLTISNLEQEDIATYFCQQGNTLPYTFGGGTKLEITGGGGSGGGGSGGGGSEVKLQESGPGLVAPSQSLSVTCTVSGVSLPDYGVSWIRQPPRKGLEWLGVIWGSETTYYNSALKSRLTIIKDNSKSQVFLKMNSLQTDDTAIYYCAKHYYYGGSYAMDYWGQGTSVTVSSIEVMYPPPYLDNEKSNGTIIHVKGKHLCPSPLFPGPSKPFWVLVVVGGVLACYSLLVTVAFIIFWVRSKRSRLLHSDYMFMTPRRPGPTRKHYQPYAPPRDFAAYRSRVKFSRSADAPAYQQGQNQLYNELNLGRREEYDVLDKRRGRDPEMGGKPRRKNPQEGLYNELQKDKMAEAYSEIGMKGERRRGKGHDGLYQGLSTATKDTYDALHMQALPPR
tumor cell killing rate, Nalm6-luc, E:T 1:8, 72 h luciferase assay: 71.8% | tumor cell killing rate, Nalm6-luc, E:T 1:16, 72 h luciferase assay: 49%

B2: B19-wildtype CAR (BCMA CAR and CD19-wildtype CAR expressed in parallel on T cells) (other)
chain 1: B1 chain 1
chain 2: B1 chain 2 with F322N
tumor cell killing rate, Nalm6-luc, E:T 1:8, 72 h luciferase assay: 55% | tumor cell killing rate, Nalm6-luc, E:T 1:16, 72 h luciferase assay: 30.6%
